{"source": "the Human Domainome abundance scans (Beltran et al. 2025)", "parents": {"B1": {"name": "REST corepressor 3, residues 87 to 134; numbered along this chain, Q9P2K3 (parent)", "chain": "DEWTVEDKVLFEQAFSFHGKSFHRIQQMLPDKTIASLVKYYYSWKKTR"}}, "note": "± gives the uncertainty stated by the source.", "data": [{"variants_of": "B1", "test": "abundance fitness (aPCA) (normalised: wild type 0, dead -1); higher = more abundant; growth selection in yeast, the domain comes from the species named", "conditions": "Homo sapiens", "values": [{"variant": "DEWTVEDKVSFEQAFSFHGKSFHRIQQMLPDKTIASLVKYYYSWKKTR", "note": "[L10S]", "abundance fitness": "-0.763 ± 0.14"}, {"variant": "DEWTVEDKVRFEQAFSFHGKSFHRIQQMLPDKTIASLVKYYYSWKKTR", "note": "[L10R]", "abundance fitness": "-0.213 ± 0.12"}, {"variant": "DEWTVEDKVAFEQAFSFHGKSFHRIQQMLPDKTIASLVKYYYSWKKTR", "note": "[L10A]", "abundance fitness": "-0.317 ± 0.14"}, {"variant": "DEWTVEDKVMFEQAFSFHGKSFHRIQQMLPDKTIASLVKYYYSWKKTR", "note": "[L10M]", "abundance fitness": "0.745 ± 0.12"}, {"variant": "DEWTVEDKVTFEQAFSFHGKSFHRIQQMLPDKTIASLVKYYYSWKKTR", "note": "[L10T]", "abundance fitness": "-0.723 ± 0.44"}, {"variant": "DEWTVEDKVIFEQAFSFHGKSFHRIQQMLPDKTIASLVKYYYSWKKTR", "note": "[L10I]", "abundance fitness": "-0.117 ± 0.39"}, {"variant": "DEWTVEDKVVFEQAFSFHGKSFHRIQQMLPDKTIASLVKYYYSWKKTR", "note": "[L10V]", "abundance fitness": "-0.051 ± 0.087"}, {"variant": "DEWTVEDKVKFEQAFSFHGKSFHRIQQMLPDKTIASLVKYYYSWKKTR", "note": "[L10K]", "abundance fitness": "0.546 ± 0.15"}, {"variant": "DEWTVRDKVLFEQAFSFHGKSFHRIQQMLPDKTIASLVKYYYSWKKTR", "note": "[E6R]", "abundance fitness": "-0.273 ± 0.11"}, {"variant": "DEWTVIDKVLFEQAFSFHGKSFHRIQQMLPDKTIASLVKYYYSWKKTR", "note": "[E6I]", "abundance fitness": "-0.58 ± 0.46"}, {"variant": "DEWTVLDKVLFEQAFSFHGKSFHRIQQMLPDKTIASLVKYYYSWKKTR", "note": "[E6L]", "abundance fitness": "-0.614 ± 0.2"}, {"variant": "DEWTVVDKVLFEQAFSFHGKSFHRIQQMLPDKTIASLVKYYYSWKKTR", "note": "[E6V]", "abundance fitness": "-0.777 ± 0.33"}, {"variant": "DEWTVTDKVLFEQAFSFHGKSFHRIQQMLPDKTIASLVKYYYSWKKTR", "note": "[E6T]", "abundance fitness": "-0.323 ± 0.2"}, {"variant": "DEWTVQDKVLFEQAFSFHGKSFHRIQQMLPDKTIASLVKYYYSWKKTR", "note": "[E6Q]", "abundance fitness": "0.293 ± 0.48"}, {"variant": "DEWTVENKVLFEQAFSFHGKSFHRIQQMLPDKTIASLVKYYYSWKKTR", "note": "[D7N]", "abundance fitness": "-0.821 ± 0.23"}, {"variant": "DEWTVEAKVLFEQAFSFHGKSFHRIQQMLPDKTIASLVKYYYSWKKTR", "note": "[D7A]", "abundance fitness": "-0.811 ± 0.34"}, {"variant": "DEWTVETKVLFEQAFSFHGKSFHRIQQMLPDKTIASLVKYYYSWKKTR", "note": "[D7T]", "abundance fitness": "-0.708 ± 0.43"}, {"variant": "DEWTVEVKVLFEQAFSFHGKSFHRIQQMLPDKTIASLVKYYYSWKKTR", "note": "[D7V]", "abundance fitness": "-0.687 ± 0.21"}, {"variant": "DEWTVEYKVLFEQAFSFHGKSFHRIQQMLPDKTIASLVKYYYSWKKTR", "note": "[D7Y]", "abundance fitness": "-0.686 ± 0.45"}, {"variant": "DEWTVEWKVLFEQAFSFHGKSFHRIQQMLPDKTIASLVKYYYSWKKTR", "note": "[D7W]", "abundance fitness": "-0.762 ± 0.36"}, {"variant": "DEWTVEQKVLFEQAFSFHGKSFHRIQQMLPDKTIASLVKYYYSWKKTR", "note": "[D7Q]", "abundance fitness": "-0.156 ± 0.22"}, {"variant": "DEWTVESKVLFEQAFSFHGKSFHRIQQMLPDKTIASLVKYYYSWKKTR", "note": "[D7S]", "abundance fitness": "-0.611 ± 0.17"}, {"variant": "DEWTVELKVLFEQAFSFHGKSFHRIQQMLPDKTIASLVKYYYSWKKTR", "note": "[D7L]", "abundance fitness": "-0.796 ± 0.21"}, {"variant": "DEWTVEGKVLFEQAFSFHGKSFHRIQQMLPDKTIASLVKYYYSWKKTR", "note": "[D7G]", "abundance fitness": "-0.571 ± 0.15"}, {"variant": "DEWTVEPKVLFEQAFSFHGKSFHRIQQMLPDKTIASLVKYYYSWKKTR", "note": "[D7P]", "abundance fitness": "-0.411 ± 0.4"}, {"variant": "DEWTVEEKVLFEQAFSFHGKSFHRIQQMLPDKTIASLVKYYYSWKKTR", "note": "[D7E]", "abundance fitness": "-0.617 ± 0.34"}, {"variant": "DEWTVEDPVLFEQAFSFHGKSFHRIQQMLPDKTIASLVKYYYSWKKTR", "note": "[K8P]", "abundance fitness": "-0.763 ± 0.32"}, {"variant": "DEWTVEDVVLFEQAFSFHGKSFHRIQQMLPDKTIASLVKYYYSWKKTR", "note": "[K8V]", "abundance fitness": "-0.625 ± 0.21"}, {"variant": "DEWTVEDHVLFEQAFSFHGKSFHRIQQMLPDKTIASLVKYYYSWKKTR", "note": "[K8H]", "abundance fitness": "-0.594 ± 0.32"}, {"variant": "DEWTVEDLVLFEQAFSFHGKSFHRIQQMLPDKTIASLVKYYYSWKKTR", "note": "[K8L]", "abundance fitness": "-0.779 ± 0.38"}, {"variant": "DEWTVEDQVLFEQAFSFHGKSFHRIQQMLPDKTIASLVKYYYSWKKTR", "note": "[K8Q]", "abundance fitness": "-0.457 ± 0.38"}, {"variant": "DEWTVEDRVLFEQAFSFHGKSFHRIQQMLPDKTIASLVKYYYSWKKTR", "note": "[K8R]", "abundance fitness": "-0.434 ± 0.13"}, {"variant": "DEWTVEDSVLFEQAFSFHGKSFHRIQQMLPDKTIASLVKYYYSWKKTR", "note": "[K8S]", "abundance fitness": "-0.822 ± 0.36"}, {"variant": "DEWTVEDGVLFEQAFSFHGKSFHRIQQMLPDKTIASLVKYYYSWKKTR", "note": "[K8G]", "abundance fitness": "-0.673 ± 0.12"}, {"variant": "DEWTVEDMVLFEQAFSFHGKSFHRIQQMLPDKTIASLVKYYYSWKKTR", "note": "[K8M]", "abundance fitness": "-0.035 ± 0.13"}, {"variant": "DEWTVEDIVLFEQAFSFHGKSFHRIQQMLPDKTIASLVKYYYSWKKTR", "note": "[K8I]", "abundance fitness": "-0.388 ± 0.5"}, {"variant": "DEWTVEDTVLFEQAFSFHGKSFHRIQQMLPDKTIASLVKYYYSWKKTR", "note": "[K8T]", "abundance fitness": "-0.542 ± 0.32"}, {"variant": "DEWTVEDKGLFEQAFSFHGKSFHRIQQMLPDKTIASLVKYYYSWKKTR", "note": "[V9G]", "abundance fitness": "-0.17 ± 0.13"}, {"variant": "DEWTVEDKALFEQAFSFHGKSFHRIQQMLPDKTIASLVKYYYSWKKTR", "note": "[V9A]", "abundance fitness": "-0.216 ± 0.14"}, {"variant": "DEWTVEDKPLFEQAFSFHGKSFHRIQQMLPDKTIASLVKYYYSWKKTR", "note": "[V9P]", "abundance fitness": "-0.828 ± 0.24"}, {"variant": "DEWTVEDKHLFEQAFSFHGKSFHRIQQMLPDKTIASLVKYYYSWKKTR", "note": "[V9H]", "abundance fitness": "-0.237 ± 0.2"}, {"variant": "DEWTVEDKNLFEQAFSFHGKSFHRIQQMLPDKTIASLVKYYYSWKKTR", "note": "[V9N]", "abundance fitness": "0.166 ± 0.22"}, {"variant": "DEWTVEDKELFEQAFSFHGKSFHRIQQMLPDKTIASLVKYYYSWKKTR", "note": "[V9E]", "abundance fitness": "-0.302 ± 0.14"}, {"variant": "DEWTVEDKSLFEQAFSFHGKSFHRIQQMLPDKTIASLVKYYYSWKKTR", "note": "[V9S]", "abundance fitness": "-0.143 ± 0.15"}, {"variant": "DEWTVEDKMLFEQAFSFHGKSFHRIQQMLPDKTIASLVKYYYSWKKTR", "note": "[V9M]", "abundance fitness": "-0.592 ± 0.36"}, {"variant": "DEWTVEDKFLFEQAFSFHGKSFHRIQQMLPDKTIASLVKYYYSWKKTR", "note": "[V9F]", "abundance fitness": "-0.531 ± 0.38"}, {"variant": "DEWTVEDKRLFEQAFSFHGKSFHRIQQMLPDKTIASLVKYYYSWKKTR", "note": "[V9R]", "abundance fitness": "-0.167 ± 0.12"}, {"variant": "DEWTVEDKWLFEQAFSFHGKSFHRIQQMLPDKTIASLVKYYYSWKKTR", "note": "[V9W]", "abundance fitness": "-0.18 ± 0.24"}, {"variant": "DEWTVEDKILFEQAFSFHGKSFHRIQQMLPDKTIASLVKYYYSWKKTR", "note": "[V9I]", "abundance fitness": "0.032 ± 0.27"}, {"variant": "DEWTVEDKKLFEQAFSFHGKSFHRIQQMLPDKTIASLVKYYYSWKKTR", "note": "[V9K]", "abundance fitness": "-0.201 ± 0.18"}, {"variant": "DEWTVEDKYLFEQAFSFHGKSFHRIQQMLPDKTIASLVKYYYSWKKTR", "note": "[V9Y]", "abundance fitness": "-0.581 ± 0.3"}, {"variant": "DEWTVEDKLLFEQAFSFHGKSFHRIQQMLPDKTIASLVKYYYSWKKTR", "note": "[V9L]", "abundance fitness": "-0.28 ± 0.19"}, {"variant": "DEWTVEDKTLFEQAFSFHGKSFHRIQQMLPDKTIASLVKYYYSWKKTR", "note": "[V9T]", "abundance fitness": "-0.024 ± 0.23"}, {"variant": "DEWTVEDKDLFEQAFSFHGKSFHRIQQMLPDKTIASLVKYYYSWKKTR", "note": "[V9D]", "abundance fitness": "-0.258 ± 0.2"}]}]}
